According to paper doi:10.1101/2024.07.16.603699 (bioRxiv, 2024):

T1: Saccharolobus solfataricus ribosomal protein uS13 (S. solfataricus (endogenous in the …, UniProt P95986 1-165))
T1 sequence (looked up): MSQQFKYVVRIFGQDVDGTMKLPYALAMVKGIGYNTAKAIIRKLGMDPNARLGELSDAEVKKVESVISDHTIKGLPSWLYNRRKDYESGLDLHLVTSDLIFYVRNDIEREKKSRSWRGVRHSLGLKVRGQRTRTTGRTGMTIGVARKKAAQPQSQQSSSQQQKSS

T2: Saccharolobus solfataricus ribosomal protein uS3 (S. solfataricus (endogenous in the …, UniProt Q9UXA0 1-229))
T2 sequence (looked up): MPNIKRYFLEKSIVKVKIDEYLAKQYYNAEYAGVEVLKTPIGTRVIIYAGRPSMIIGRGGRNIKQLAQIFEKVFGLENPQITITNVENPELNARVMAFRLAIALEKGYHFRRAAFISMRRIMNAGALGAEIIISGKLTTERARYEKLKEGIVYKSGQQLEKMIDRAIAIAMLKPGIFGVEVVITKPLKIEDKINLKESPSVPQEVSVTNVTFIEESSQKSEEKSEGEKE

B1: Saccharolobus solfataricus ribosomal protein uS14 (natural protein, UniProt Q97ZQ5 1-54, looked up)
chain: MGKYKPPAERKYGKGVQSCQRCGSKDSVIQKYGIYLCRQCFREVAYELGFRKYW
B2: Saccharolobus solfataricus ribosomal protein eS25 (natural protein, UniProt Q97ZZ6 1-110, looked up)
chain: MGGASKKPISTMEKRLKKEAEKQQKAEEKKKGPSKTGKEIISRAVTIDEETKKKVLDEIKKESIITPYALATKSGISISVARKILKELENQNVVKLYSKNRRLEIYIAAS
B3: Saccharolobus solfataricus ribosomal protein aS34 (natural protein, UniProt Q97ZK4 1-72, looked up)
chain: MSIKNRGSNAYGHLGWLTVYCRICNRKLIIGTDILYKCPKCEKKYSAYFCEADKRGLKGKCPYCGTELVPIL

What was measured:
Experiment in all cases: cryo-EM structure
[1] = target: B3
[2] = target: T1, Saccharolobus solfataricus ribosomal …
[3] = target: T2, Saccharolobus solfataricus ribosomal …

Binder: B1
- binding result [1]: binds

Binder: B2
- binding result [2]: binds

Binder: B3
- binding result [3]: binds
